2 molecules from US20090142855, “Polynucleotides and Polypeptides of the IL-12 Family of Cytokines” (published 2009) can be followed below.

By Kd is commonly meant the equilibrium constant for the complex coming apart. Read a low Kd as a tighter complex.

In data set [1] the target is T1, IL-23 (p19/p40 heterodimer) (Homo sapiens, UniProt P29460;Q9NPF7 P29460:23-328,Q9NPF7:20-189). Nature of the data set: FP. The settings on record: label: 5'-32P.
Data set [2] deals with T1, IL-23 (p19/p40 heterodimer). Description: filter; dot blot nitrocellulose; Dulbecco's PBS with Ca2+ and Mg2+, 0.1 mg/mL BSA, room temp 30 min. Conditions: label: 5'-32P. The procedure: Aptamer binding affinity determination. Trace 5′-³²P-labeled aptamers were combined with protein (IL-23 or IL-12) at various concentrations and incubated at room temperature for 30 minutes in Dulbecco's PBS (PBS plus Ca²⁺, Mg²⁺) plus 0.1 mg/mL BSA. Each titration curve was tested in duplicate. The reactions were then added to a dot blot apparatus (Minifold-1 Dot Blot, Acrylic, Schleicher and Schuell, Keene, N.H.), assembled (from top to bottom) with Protran nitrocellulose (Schleicher and Schuell, Keene, N.H.), Hybond-P nylon (Amersham Biosciences, Piscataway, N.J.) and GB002 gel blot paper (Schleicher and Schuell, Keene, NH). Aptamers bound to protein are retained on the nitrocellulose filter, whereas the non-protein bound RNA is captured on the nylon filter. The extent of aptamer capture on each filter was quantitated using a Phosphoimager (Molecular Dynamics). Equilibrium dissociation constants (KD) were calculated using the equation: […]
FIGS. 3 and 4 show the comparison of the aptamer binding curves (in duplicate) to cynomolgus IL-23, cynomolgus IL-12, and human IL-23.

T1 sequence (P29460 23-328, chain 1 of 2): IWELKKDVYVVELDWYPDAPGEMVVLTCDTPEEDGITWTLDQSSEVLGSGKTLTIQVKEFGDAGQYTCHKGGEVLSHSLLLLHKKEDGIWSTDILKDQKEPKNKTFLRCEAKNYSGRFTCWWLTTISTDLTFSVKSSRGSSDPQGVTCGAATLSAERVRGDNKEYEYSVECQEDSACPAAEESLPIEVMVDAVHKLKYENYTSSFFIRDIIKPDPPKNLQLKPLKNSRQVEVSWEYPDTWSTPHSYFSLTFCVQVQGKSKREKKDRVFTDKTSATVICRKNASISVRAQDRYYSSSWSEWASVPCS
T1 sequence (Q9NPF7 20-189, chain 2 of 2): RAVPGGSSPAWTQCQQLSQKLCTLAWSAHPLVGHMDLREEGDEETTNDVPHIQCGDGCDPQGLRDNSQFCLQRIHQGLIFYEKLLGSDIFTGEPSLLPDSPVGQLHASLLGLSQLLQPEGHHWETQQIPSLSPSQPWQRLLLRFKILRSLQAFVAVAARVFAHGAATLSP

B1: ARC1623 (mixed)
RNA: ACAGGCAAGUAAUUGGGGAGUGCGGGCGGGGUGU
modifications: 2'-OMe at all C and all U and at G16, G17, G24, G25, G30, G31; all other nucleotides 2'-deoxy (all A deoxy); PS after positions 17, 18, 19, 21; 3' inverted dT
B1 had a Kd in data set [1] of 250 pM.

B2: ARC1626 (mixed)
RNA: B1 RNA
modifications: 2'-OMe at all C and all U and at G16, G17, G24, G25, G30, G31; all other nucleotides 2'-deoxy (all A deoxy); PS after positions 2, 3, 4, 6, 7, 8, 10, 11, 14, 17, 18, 19, 21, 25, 27, 28, 32; 3' inverted dT
For the molecule B2, the Kd in data set [2] worked out at 150 pM.
